Our source for the Kd and binding affinity values is patent publication US20250144214A1 (US Dept. of Health and Human Services, published 2025).

Where a chain is given by its changes, count along the chain named.

T1: glypican-2 (GPC2), as used in the binding affinity test (UniProt Q8N158 24-553, limits assumed)
T1 construct: It states neither the form of the antigen nor the assay
T1 sequence (looked up): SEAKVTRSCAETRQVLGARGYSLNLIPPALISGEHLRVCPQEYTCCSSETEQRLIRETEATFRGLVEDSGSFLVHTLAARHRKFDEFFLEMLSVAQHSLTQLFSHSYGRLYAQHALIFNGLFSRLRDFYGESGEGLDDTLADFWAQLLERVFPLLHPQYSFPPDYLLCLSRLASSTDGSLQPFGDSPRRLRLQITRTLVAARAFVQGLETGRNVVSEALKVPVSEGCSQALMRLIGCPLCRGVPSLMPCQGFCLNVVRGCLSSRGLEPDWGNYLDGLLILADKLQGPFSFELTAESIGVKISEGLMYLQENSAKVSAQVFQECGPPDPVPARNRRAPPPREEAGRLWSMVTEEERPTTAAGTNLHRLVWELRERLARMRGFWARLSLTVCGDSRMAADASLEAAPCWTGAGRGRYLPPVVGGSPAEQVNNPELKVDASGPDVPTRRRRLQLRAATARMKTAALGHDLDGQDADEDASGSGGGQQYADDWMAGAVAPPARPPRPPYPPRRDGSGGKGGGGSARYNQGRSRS

B1: hCT3-1 (humanized CT3 antibody) (antibody, V domains shown)
VH: QVQLVQSGAEVKKPGASVKVSCKASRFTFTDYNIHWVRQAPGQGLEWIGYINPNNGDIFYKQKFNGRVTLTADKSTSTAYMELSSLTSEDTAVYYCVRSSNIRYTFDRFFDVWGQGTLVTVSS
VL: DVVMTQSPLSLPVTPGEPASISCRASSSVNYIYWYLQKPGQSPQLWIYYTSNLAPGVPDRFSGSGSGTDFTLKISRVEAEDVGVYYCQQFSSSPSTFGQGTKLEIK
B2: hCT3-2 (humanized CT3 antibody) (antibody, V domains shown)
VH: QVQLVQSGAEVKKPGASVKVSCKASRFTFTDYNIHWVRQAPGQRLEWIGYINPNNGDIFYKQKFNGRVTITRDTSASTAYMELSSLRSEDTAVYYCVRSSNIRYTFDRFFDVWGQGTLVTVS
VL: DVVMTQSPAFLSVTPGEKVTITCRASSSVNYIYWYQQKPDQAPKLWIYYTSNLAPGVPSRFSGSGSGTDFTFTISSLEAEDAATYYCQQFSSSPSTFGQGTKLEIK
B3: hCT3-4 (humanized CT3 antibody) (antibody, V domains shown)
VH: B2 VH
VL: EIVLTQSPATLSLSPGERATLSCRASSSVNYIYWYQQKPGQAPRLWIYYTSNLAPGIPARFSGSGSGTDFTLTISSLEPEDFAVYYCQQFSSSPSTFGQGTKLEIK
B4: hCT3-3 (humanized CT3 antibody) (antibody, V domains shown)
VH: B2 VH with R44G, R67K, V68A, I70M, R72V, A76T, A79V
VL: DIQMTQSPSSLSASVGDRVTITCRASSSVNYIYWYQQKSGKAPKLWIYYTSNLAPGVPSRFSGSGSGTDFTLTISSLQPEDFATYYCQQFSSSPSTFGQGTKLEIK
B5: CT3 antibody (parental murine GPC2-specific monoclonal antibody) (antibody, V domains shown)
VH: EVQLQQSGPELVKPGASVKMSCKASRFTFTDYNIHWVKQSPGKTLEWIGYINPNNGDIFYKQKFNGKATLTINKSSNTAYMELRSLTSEDSAVYYCVRSSNIRYTFDRFFDVWGTGTTVTVSS
VL: ENVLTQSPAIMSASLGEKVTMSCRASSSVNYIYWYQQKSDASPKLWIYYTSNLAPGVPARFSGSGSGNSYSLTISSMEGEDAATYYCQQFSSSPSTFGTGTKLELK
notes: also called parental CT3 antibody; murine antibody CT3

One assay addresses T1, glypican-2 (GPC2), as used in the …. Description: sensorgrams, Response (nm) against Time (unit inferred), traces at 200, 100 and 50 nM; instrument and immobilised partner not stated.
What is called Kd is the equilibrium constant for the complex coming apart. Higher therefore signals lower affinity. In turn, B1 showed a dissociation constant Kd of 4 nM.
In turn, B2 came in with a Kd of 3.6 nM.

A further assay has the same target. The description is as above. The source holds these as a separate data set.
In turn, B3 returned a Kd of 3.3 nM.
The molecule B4 returned a Kd of 2.5 nM.

A further assay shares this target. Description: binding affinity for GPC2; method not stated (graphs in FIGS. 7A-7B).
In turn, B5 came in with a binding affinity of 2.2 nM.
For the molecule B1, the binding affinity turned out to be 4 nM.
In the case of B2, the binding affinity was determined as 3.6 nM.
The same measure, in the same setting: then B3, with 3.3 nM.
The same measure, in the same setting: then B4, with 2.5 nM.
